As usually defined, the Kd is the constant that tells how readily two partners part at equilibrium. As usually defined, the EC50 is the concentration giving half of the maximal effect.

In patent publication US20120244166A1 one finds Kd and EC50 data, which are given here for twelve substances.

One assay deals with gp120 (HIV-1 strain YU2) (UniProt P35961). The assay is described as follows: SPR. For orientation: SPR reads the build-up and loss of mass on a sensor chip optically.
As for b12, the Kd was 38.1 nM.

The next assay concerns the target Du156.12. Nature of the assay: ELISA. In general terms: In an ELISA, binding on a coated surface is turned into a signal by an enzyme label.
11 (Heavy chain: R61Q): the EC50 was 0.086 µg/mL.

9 (Heavy chain: K52N) yielded an EC50 of 0.056 µg/mL. Compared with the last substance, the EC50 is about 1.5-fold lower.

In turn, 1 (Heavy chain: T33Y) yielded an EC50 of 0.048 µg/mL.

Substance 4 (Heavy chain: V57T) displayed an EC50 of 0.164 µg/mL.

In the case of 10 (Heavy chain: R53N), the EC50 was determined as 0.063 µg/mL.

In turn, 6 (Heavy chain: V73T) displayed an EC50 of 0.097 µg/mL.

Consider 12 (Light chain: Y30S), for which the EC50 is 0.196 µg/mL.

5 (Heavy chain: P62K) showed an EC50 of 0.066 µg/mL.

Consider 7 (Heavy chain: Y74S), for which the EC50 worked out at 0.071 µg/mL. This EC50 and that of the substance before are within 1.5-fold of each other.

Substance 3 (Heavy chain: A56G) had an EC50 of 0.101 µg/mL.

Substance 8 (Heavy chain: I30T) registered an EC50 of 0.063 µg/mL.
